Here are results for 84 variants from the RNAGym collection of RNA variant scans (doi:10.1093/molbev/msab373).

First the molecules themselves.
B1: Azoarcus group I ribozyme (parent)
chain: GUGCCUUGCGCCGGGAAACCACGCAAGGGAUGGUGUCAAAUUCGGCGAAACCUAAGCGCCCGCCCGGGCGUAUGGCAACGCCGAGCCAAGCUUCGGCGCCUGCGCCGAUGAAGGUGUAGAGACUAGACGGCACCCACCUAAGGCAAACGCUAUGGUGAAGGCAUAGUCCAGGGAGUGGCGAAAGUCACACAAACCGG

The variants in this data set derive from B1. Nature of the data set: reverse-splicing fitness (ratio to wild type); higher = more active; in vitro selection; Mg2+ level not given. Summed up:
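An in vitro group I ribozyme library with randomized positions was T7-transcribed and gel-purified. In triplicate, 10 pmol RNA in EPPS pH 7.5 was reacted with 50 pmoles of a 30-nt RNA substrate for 1 h at 37 °C across several added MgCl2 levels (1–48 mM), then stopped with EDTA. Products were reverse transcribed from a substrate-complementary primer, PCR-amplified and sequenced (HiSeq 4000). Fitness is a variant's read proportion after selection over that before, normalised to wild type.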
For the variant C82U A120G A145G C150G C169G U176G, the reverse-splicing fitness worked out at 0.00523. The value for C82U A120G A145G C150G C169G U176A was 0.0089.

For C82U A120G C150A U176C, the reverse-splicing fitness was 0.0166. The value for C82U A120G C150A U176G was 0.00583; that for C82U A120G C150A U176A was 0.0116; that for C82U A120G A145U C150U C169A U176A was 0.0106. As for C82U A120G A145U C150U C169A U176C, the figure is 0.0085; as for C82U A120G A145U C150U C169A U176G, 0.00326. As for C82U A120G A145C U176C, the figure is 0.0121. For the variant C82U A120G A145C U176A, the reverse-splicing fitness amounted to 0.0109. The value for C82U A120G A145C U176G was 0.00356; that for C82U A120G A145G C150G C169A was 0.00944. As for C82U A120G A145G C150G C169U, the figure is 0.0101; as for C82U A120G A145G C150G C169G, 0.00862; as for C82U A120G C150G C169G U176C, 0.0046. As for C82U A120G C150G C169G U176A, the reverse-splicing fitness is 0.00641.

In the case of C82U A120G C150G C169G U176G, the reverse-splicing fitness is 0.00357.

Regarding C82U A120G A145G C150U C169A U176G, the reverse-splicing fitness is 0.00486. Take C82U A120G A145G C150U C169A U176A: the reverse-splicing fitness turned out to be 0.0153. As for C82U A120G A145G C150U C169A U176C, the figure is 0.0154; as for C82U A120G A145G C150G C169U U176C, 0.0118; as for C82U A120G A145G C150G C169U U176G, 0.00698. As to C82U A120G A145G C150G C169U U176A, the reverse-splicing fitness amounted to 0.0122. As for C82U A120C U176A, the figure is 0.048; as for C82U A120C U176G, 0.00931.

Regarding C82U A120C U176C, the reverse-splicing fitness was 0.0725. The value for C82U A120C C150G C169G U176A was 0.00705; that for C82U A120C C150G C169G U176C was 0.00447; that for C82U A120C C150G C169G U176G was 0.00432. As for C82U A120G C150G, the figure is 0.00711; as for C82U A120G C150U, 0.0161; as for C82U A120G C150A, 0.00924. The value for C82U A120G A145G C150U C169U U176C was 0.0164.

Consider C82U A120G A145G C150U C169U U176A, for which the reverse-splicing fitness came to 0.0207. Turning to C82U A120G A145G C150U C169U U176G, the reverse-splicing fitness amounted to 0.00441. As for C82U A120G A145U C169U, the figure is 0.0182. As for C82U A120G A145U C169A, the figure is 0.017; as for C82U A120G A145U C169G, 0.0232; as for C82U A120G C150A C169A U176A, 0.0174. The value for C82U A120G C150A C169A U176C was 0.0164; that for C82U A120G C150A C169A U176G was 0.00477; that for C82U A120G C150A C169A was 0.0118. On to C82U A120G C150A C169G, for which the reverse-splicing fitness was determined as 0.0102. The value for C82U A120G C150A C169U was 0.00872; that for C82U A120G A145C C169A U176A was 0.00959; that for C82U A120G A145C C169A U176C was 0.00742. The value for C82U A120G A145C C169A U176G was 0.00332. As for C82U A120G A145C C150A C169G U176G, the figure is 0.00402. Consider C82U A120G A145C C150A C169G U176A, for which the reverse-splicing fitness was 0.0215. As for C82U A120G A145C C150A C169G U176C, the figure is 0.0125; as for C82U A120C C150A C169A, 0.00872; as for C82U A120C C150A C169U, 0.0109. As for C82U A120C C150A C169G, the figure is 0.00799. As for C82U A120G C150A C169U U176A, the figure is 0.0211. As to C82U A120G C150A C169U U176C, the reverse-splicing fitness was 0.0174. As for C82U A120G C150A C169U U176G, the reverse-splicing fitness stood at 0.00606. The value for C82U A120G A145C C150U C169G U176A was 0.0197; that for C82U A120G A145C C150U C169G U176G was 0.0041; that for C82U A120G A145C C150U C169G U176C was 0.0111. Turning to C82U A120G A145C C150A C169A, the reverse-splicing fitness stood at 0.00745.

As to C82U A120G A145C C150A C169U, the reverse-splicing fitness was 0.00698. The value for C82U A120G A145C C150A C169G was 0.00758; that for C82U A120G A145U C150G C169U was 0.00878. The value for C82U A120G A145U C150G C169A was 0.00915; that for C82U A120G A145U C150G C169G was 0.00815. The value for C82U A120G A145G C150G U176G was 0.00539. On to C82U A120G A145G C150G U176C, for which the reverse-splicing fitness stood at 0.00995. For C82U A120G A145G C150G U176A, the reverse-splicing fitness was 0.00607. For the variant C82U A120C C150G C169U U176C, the reverse-splicing fitness turned out to be 0.0136. As for C82U A120C C150G C169U U176A, the figure is 0.00844; as for C82U A120C C150G C169U U176G, 0.00422. The value for C82U A120C C150U U176G was 0.00855; that for C82U A120C C150U U176A was 0.0291; that for C82U A120C C150U U176C was 0.0444. As for C82U A120G A145C C150G C169G, the figure is 0.00837; as for C82U A120G A145C C150G C169U, 0.00822. As to C82U A120G A145C C150G C169A, the reverse-splicing fitness was determined as 0.00904.

In the case of C82U A120C A145U C169U, the reverse-splicing fitness came to 0.0193. As for C82U A120G, the figure is 0.0259.

As to C82U A120U, the reverse-splicing fitness turned out to be 0.174. The value for C82U A120G A145G C169G U176G was 0.00333; that for C82U A120G A145G C169G U176A was 0.0223; that for C82U A120G A145G C169G U176C was 0.0317. As for C82U A120U A145C C150A, the figure is 0.00884.
